The experiment deals with truncated polypeptides of the in vitro translation of the DNA ligase III cDNA. Nature of the experiment: pull-down: XRCC1-His incubated with [35S]methionine-labeled in vitro translation product, captured on NTA-agarose beads, eluted with 200 mM imidazole.

The substance “Histidine-tagged recombinant XRCC1 protein (from UniProt P18887 1-633)” came in with a percent of translation product recovered with XRCC1-His of less than 90%.
